# Legend:
# HeLa Kyoto [1] = assay: solubility in G1/S (NP-40 vs SDS abundance) (log2 ratio); higher = more soluble; conditions: cell cycle stage: G1/S
# HeLa Kyoto [2] = assay: solubility change mitosis vs G1/S (difference of NP-40 vs SDS log2 ratios) (log2 ratio difference); higher = more soluble in mitosis
# HeLa Kyoto [3] = assay: thermal stability score vs G1/S (z-score of summed log2 fold changes over temperatures); higher = more thermally stable than in G1/S
# [4] = cell cycle stage: early G1 (4.5 h after nocodazole release)
# 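Wherever solubility change mitosis vs G1/S (difference of NP-40 vs SDS log2 ratios) is given: synchronized HeLa Kyoto cells (double thymidine block for G1/S, nocodazole release for mitosis), protein amounts in NP-40 versus SDS lysates quantified by mass spectrometry, three biological replicates.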
# 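Wherever solubility in G1/S (NP-40 vs SDS abundance) is given: HeLa Kyoto cells arrested at G1/S by double thymidine block, proteins quantified by TMT10plex mass spectrometry in mild NP-40 versus SDS extracts, three biological replicates.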
# 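Wherever thermal stability score vs G1/S (z-score of summed log2 fold changes over temperatures) is given: synchronized HeLa Kyoto cells, proteins quantified by TMT10plex mass spectrometry, three biological replicates, mitosis taken 0.5 h after nocodazole release, G1/S directly after double thymidine block.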
# Chain of MFSD12 (chain, as listed by the source): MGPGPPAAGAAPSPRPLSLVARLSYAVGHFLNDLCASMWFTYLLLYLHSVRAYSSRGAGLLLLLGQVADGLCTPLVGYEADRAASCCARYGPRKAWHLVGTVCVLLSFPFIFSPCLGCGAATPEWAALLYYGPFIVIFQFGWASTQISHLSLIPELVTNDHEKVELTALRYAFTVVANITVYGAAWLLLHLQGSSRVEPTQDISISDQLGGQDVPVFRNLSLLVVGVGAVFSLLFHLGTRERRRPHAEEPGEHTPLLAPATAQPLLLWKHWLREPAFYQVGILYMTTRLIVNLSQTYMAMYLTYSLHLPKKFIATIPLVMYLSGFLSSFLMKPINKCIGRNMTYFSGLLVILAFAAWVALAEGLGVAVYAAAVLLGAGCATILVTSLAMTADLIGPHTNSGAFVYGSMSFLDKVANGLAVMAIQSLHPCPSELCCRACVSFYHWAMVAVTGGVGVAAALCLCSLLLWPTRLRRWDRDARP
substance,measurement,setting,value
MALFYVARYPGPDAAAAAGPEGAEAGAHGRARALLERLQSRARERQQQREPAQTEAAASTEPATRRRRRPRRRRRVNDAEPGSPEAPQGKRRKADGEDAGAESNEEAPGEPSAGSSEEAPGEPSAGSSEEAPGERSTSASAEAAPDGPALEEAAGPLVPGLVLGGFGKRKAPKVQPFLPRWLAEPNCVRRNVTEDLVPIEDIPDVHPDLQKQLRAHGISSYFPVQAAVIPALLESAACGFLVGRGGYRPSDLCVSAPTGSGKTLAFVIPVVQALLSRVVCHIRALVVLPTKELAQQVSKVFNIYTDATPLRVSLVTGQKSLAKEQESLVQKTADGYRCLADIVVATPGRLVDHIDQTPGFSLQQLRFLIIDEADRMIDSMHQSWLPRVVAAAFQSEDPADPCALLQRRQAQAVTAASTCCPQMPLQKLLFSATLTQNPEKLQQLGLHQPRLFSTGLAHRGLEDTDGDGDSGKYAFPVGLTHHYVPCSLSSKPLVVLHLVLEMGFSRVLCFTNSRENSHRLFLLVQAFGGVDVAEFSSRYGPGQRRMILKQFEQGKIQLLISTDATARGIDVQGVELVVNYDAPQYLRTYVHRVGRTARAGKTGQAFTLLLKVQERRFLRMLTEAGAPELQRHELSSKLLQPLVPRYEEALSQLEESVKEERKQRAA [DDX51],solubility in G1/S (log2),HeLa Kyoto [1],-1.48
same,solubility change mitosis (log2),HeLa Kyoto [2],1.23
same,thermal stability score,HeLa Kyoto [3]; [4],-0.0942
same,thermal stability score,HeLa Kyoto [3]; cell cycle stage: mitosis,1.3
MARACLQAVKYLMFAFNLLFWLGGCGVLGVGIWLAATQGSFATLSSSFPSLSAANLLIITGAFVMAIGFVGCLGAIKENKCLLLTFFLLLLLVFLLEATIAILFFAYTDKIDRYAQQDLKKGLHLYGTQGNVGLTNAWSIIQTDFRCCGVSNYTDWFEVYNATRVPDSCCLEFSESCGLHAPGTWWKAPCYETVKVWLQENLLAVGIFGLCTALVQILGLTFAMTMYCQVVKADTYCA [TSPAN4],solubility in G1/S (log2),HeLa Kyoto [1],-0.165
same,solubility change mitosis (log2),HeLa Kyoto [2],0.125
same,thermal stability score,HeLa Kyoto [3]; [4],-5.28e-17
same,thermal stability score,HeLa Kyoto [3]; cell cycle stage: mitosis,1.16e-18
MATIEEIAHQIIEQQMGEIVTEQQTGQKIQIVTALDHNTQGKQFILTNHDGSTPSKVILARQDSTPGKVFLTTPDAAGVNQLFFTTPDLSAQHLQLLTDNSPDQGPNKVFDLCVVCGDKASGRHYGAVTCEGCKGFFKRSIRKNLVYSCRGSKDCIINKHHRNRCQYCRLQRCIAFGMKQDSVQCERKPIEVSREKSSNCAASTEKIYIRKDLRSPLTATPTFVTDSESTRSTGLLDSGMFMNIHPSGVKTESAVLMTSDKAESCQGDLSTLANVVTSLANLGKTKDLSQNSNEMSMIESLSNDDTSLCEFQEMQTNGDVSRAFDTLAKALNPGESTACQSSVAGMEGSVHLITGDSSINYTEKEGPLLSDSHVAFRLTMPSPMPEYLNVHYIGESASRLLFLSMHWALSIPSFQALGQENSISLVKAYWNELFTLGLAQCWQVMNVATILATFVNCLHNSLQQDKMSTERRKLLMEHIFKLQEFCNSMVKLCIDGYEYAYLKAIVLFSPDHPSLENMEQIEKFQEKAYVEFQDYITKTYPDDTYRLSRLLLRLPALRLMNATITEELFFKGLIGNIRIDSVIPHILKMEPADYNSQIIGHSI [NR2C1],solubility in G1/S (log2),HeLa Kyoto [1],0.173
same,solubility change mitosis (log2),HeLa Kyoto [2],-0.0241
same,thermal stability score,HeLa Kyoto [3]; [4],0.319
same,thermal stability score,HeLa Kyoto [3]; cell cycle stage: mitosis,0.185
MEEEDEEARALLAGGPDEADRGAPAAPGALPALCDPSRLAHRLLVLLLMCFLGFGSYFCYDNPAALQTQVKRDMQVNTTKFMLLYAWYSWPNVVLCFFGGFLIDRVFGIRWGTIIFSCFVCIGQVVFALGGIFNAFWLMEFGRFVFGIGGESLAVAQNTYAVSWFKGKELNLVFGLQLSMARIGSTVNMNLMGWLYSKIEALLGSAGHTTLGITLMIGGITCILSLICALALAYLDQRAERILHKEQGKTGEVIKLTDVKDFSLPLWLIFIICVCYYVAVFPFIGLGKVFFTEKFGFSSQAASAINSVVYVISAPMSPVFGLLVDKTGKNIIWVLCAVAATLVSHMMLAFTMWNPWIAMCLLGLSYSLLACALWPMVAFVVPEHQLGTAYGFMQSIQNLGLAIISIIAGMILDSRGYLFLEVFFIACVSLSLLSVVLLYLVNRAQGGNLNYSARQREEIKFSHTE [MFSD1],solubility in G1/S (log2),HeLa Kyoto [1],-0.268
same,solubility change mitosis (log2),HeLa Kyoto [2],-0.327
same,thermal stability score,HeLa Kyoto [3]; [4],-0.307
same,thermal stability score,HeLa Kyoto [3]; cell cycle stage: mitosis,-0.166
MEGVSALLARCPTAGLAGGLGVTACAAAGVLLYRIARRMKPTHTMVNCWFCNQDTLVPYGNRNCWDCPHCEQYNGFQENGDYNKPIPAQYLEHLNHVVSSAPSLRDPSQPQQWVSSQVLLCKRCNHHQTTKIKQLAAFAPREEGRYDEEVEVYRHHLEQMYKLCRPCQAAVEYYIKHQNRQLRALLLSHQFKRREADQTHAQNFSSAVKSPVQVILLRALAFLACAFLLTTALYGASGHFAPGTTVPLALPPGGNGSATPDNGTTPGAEGWRQLLGLLPEHMAEKLCEAWAFGQSHQTGVVALGLLTCLLAMLLAGRIRLRRIDAFCTCLWALLLGLHLAEQHLQAASPSWLDTLKFSTTSLCCLVGFTAAVATRKATGPRRFRPRRFFPGDSAGLFPTSPSLAIPHPSVGGSPASLFIPSPPSFLPLANQQLFRSPRRTSPSSLPGRLSRALSLGTIPSLTRADSGYLFSGSRPPSQVSRSGEFPVSDYFSLLSGSCPSSPLPSPAPSVAGSVASSSGSLRHRRPLISPARLNLKGQKLLLFPSPPGEAPTTPSSSDEHSPHNGSLFTMEPPHVPRKPPLQDVKHALDLRSKLERGSACSNRSIKKEDDSSQSSTCVVDTTTRGCSEEAATWRGRFGPSLVRGLLAVSLAANALFTSVFLYQSLR [TMEM201],solubility in G1/S (log2),HeLa Kyoto [1],-0.162
same,solubility change mitosis (log2),HeLa Kyoto [2],0.283
same,thermal stability score,HeLa Kyoto [3]; [4],0.522
same,thermal stability score,HeLa Kyoto [3]; cell cycle stage: mitosis,0.638
MELRARGWWLLCAAAALVACARGDPASKSRSCGEVRQIYGAKGFSLSDVPQAEISGEHLRICPQGYTCCTSEMEENLANRSHAELETALRDSSRVLQAMLATQLRSFDDHFQHLLNDSERTLQATFPGAFGELYTQNARAFRDLYSELRLYYRGANLHLEETLAEFWARLLERLFKQLHPQLLLPDDYLDCLGKQAEALRPFGEAPRELRLRATRAFVAARSFVQGLGVASDVVRKVAQVPLGPECSRAVMKLVYCAHCLGVPGARPCPDYCRNVLKGCLANQADLDAEWRNLLDSMVLITDKFWGTSGVESVIGSVHTWLAEAINALQDNRDTLTAKVIQGCGNPKVNPQGPGPEEKRRRGKLAPRERPPSGTLEKLVSEAKAQLRDVQDFWISLPGTLCSEKMALSTASDDRCWNGMARGRYLPEVMGDGLANQINNPEVEVDITKPDMTIRQQIMQLKIMTNRLRSAYNGNDVDFQDASDDGSGSGSGDGCLDDLCSRKVSRKSSSSRTPLTHALPGLSEQEGQKTSAASCPQPPTFLLPLLLFLALTVARPRWR [GPC1],solubility in G1/S (log2),HeLa Kyoto [1],-0.193
same,solubility change mitosis (log2),HeLa Kyoto [2],-0.378
same,thermal stability score,HeLa Kyoto [3]; [4],1.52
same,thermal stability score,HeLa Kyoto [3]; cell cycle stage: mitosis,3.51
MEQAPPDPERQLQPAPLEPLGSPDAGLGAAVGKEAEGAGEESSGVDTMTHNNFWLKKIEISVSEAEKRTGRNAMNMQETYTAYLIETRSVEHTDGQSVLTDSLWRRYSEFELLRSYLLVYYPHIVVPPLPEKRAEFVWHKLSADNMDPDFVERRRIGLENFLLRIASHPILCRDKIFYLFLTQEGNWKETVNETGFQLKADSRLKALNATFRVKNPDKRFTDLKHYSDELQSVISHLLRVRARVADRLYGVYKVHGNYGRVFSEWSAIEKEMGDGLQSAGHHMDVYASSIDDILEDEEHYADQLKEYLFYAEALRAVCRKHELMQYDLEMAAQDLASKKQQCEELVTGTVRTFSLKGMTTKLFGQETPEQREARIKVLEEQINEGEQQLKSKNLEGREFVKNAWADIERFKEQKNRDLKEALISYAVMQISMCKKGIQVWTNAKECFSKM [SNX4],solubility in G1/S (log2),HeLa Kyoto [1],0.0889
same,solubility change mitosis (log2),HeLa Kyoto [2],-0.0064
same,thermal stability score,HeLa Kyoto [3]; [4],0.919
same,thermal stability score,HeLa Kyoto [3]; cell cycle stage: mitosis,0.324
MEREPGAAGVRRALGRRLEAVLASRSEANAVFDILAVLQSEDQEEIQEAVRTCSRLFGALLERGELFVGQLPSEEMVMTGSQGATRKYKVWMRHRYHSCCNRLGELLGHPSFQVKELALSALLKFVQLEGAHPLEKSKWEGNYLFPRELFKLVVGGLLSPEEDQSLLLSQFREYLDYDDTRYHTMQAAVDAVARVTGQHPEVPPAFWNNAFTLLSAVSLPRREPTVSSFYVKRAELWDTWKVAHLKEHRRVFQAMWLSFLKHKLPLSLYKKVLLIVHDAILPQLAQPTLMIDFLTRACDLGGALSLLALNGLFILIHKHNLEYPDFYRKLYGLLDPSVFHVKYRARFFHLADLFLSSSHLPAYLVAAFAKRLARLALTAPPEALLMVLPFICNLLRRHPACRVLVHRPHGPELDADPYDPGEEDPAQSRALESSLWELQALQRHYHPEVSKAASVINQALSMPEVSIAPLLELTAYEIFERDLKKKGPEPVPLEFIPAQGLLGRPGELCAQHFTLS [NOC4L],solubility in G1/S (log2),HeLa Kyoto [1],-1.47
same,solubility change mitosis (log2),HeLa Kyoto [2],0.579
same,thermal stability score,HeLa Kyoto [3]; [4],-3.25e-17
same,thermal stability score,HeLa Kyoto [3]; cell cycle stage: mitosis,3.03e-17
MFSD12,solubility in G1/S (log2),HeLa Kyoto [1],-0.246
same,solubility change mitosis (log2),HeLa Kyoto [2],-0.237
same,thermal stability score,HeLa Kyoto [3]; [4],0.154
same,thermal stability score,HeLa Kyoto [3]; cell cycle stage: mitosis,0.3
MGAVLGVFSLASWVPCLCSGASCLLCSCCPNSKNSTVTRLIYAFILLLSTVVSYIMQRKEMETYLKKIPGFCEGGFKIHEADINADKDCDVLVGYKAVYRISFAMAIFFFVFSLLMFKVKTSKDLRAAVHNGFWFFKIAALIGIMVGSFYIPGGYFSSVWFVVGMIGAALFILIQLVLLVDFAHSWNESWVNRMEEGNPRLWYAALLSFTSAFYILSIICVGLLYTYYTKPDGCTENKFFISINLILCVVASIISIHPKIQEHQPRSGLLQSSLITLYTMYLTWSAMSNEPDRSCNPNLMSFITRITAPTLAPGNSTAVVPTPTPPSKSGSLLDSDNFIGLFVFVLCLLYSSIRTSTNSQVDKLTLSGSDSVILGDTTTSGASDEEDGQPRRAVDNEKEGVQYSYSLFHLMLCLASLYIMMTLTSWYSPDAKFQSMTSKWPAVWVKISSSWVCLLLYVWTLVAPLVLTSRDFS [SERINC3],solubility in G1/S (log2),HeLa Kyoto [1],-0.0916
same,solubility change mitosis (log2),HeLa Kyoto [2],0.0994
same,thermal stability score,HeLa Kyoto [3]; [4],-2.7
same,thermal stability score,HeLa Kyoto [3]; cell cycle stage: mitosis,-4.19
MGDKGTRVFKKASPNGKLTVYLGKRDFVDHIDLVDPVDGVVLVDPEYLKERRVYVTLTCAFRYGREDLDVLGLTFRKDLFVANVQSFPPAPEDKKPLTRLQERLIKKLGEHAYPFTFEIPPNLPCSVTLQPGPEDTGKACGVDYEVKAFCAENLEEKIHKRNSVRLVIRKVQYAPERPGPQPTAETTRQFLMSDKPLHLEASLDKEIYYHGEPISVNVHVTNNTNKTVKKIKISVRQYADICLFNTAQYKCPVAMEEADDTVAPSSTFCKVYTLTPFLANNREKRGLALDGKLKHEDTNLASSTLLREGANREILGIIVSYKVKVKLVVSRGGLLGDLASSDVAVELPFTLMHPKPKEEPPHREVPENETPVDTNLIELDTNDDDIVFEDFARQRLKGMKDDKEEEEDGTGSPQLNNR [ARRB1],solubility in G1/S (log2),HeLa Kyoto [1],0.139
same,solubility change mitosis (log2),HeLa Kyoto [2],-0.0694
same,thermal stability score,HeLa Kyoto [3]; [4],-0.748
same,thermal stability score,HeLa Kyoto [3]; cell cycle stage: mitosis,-0.986
